Assay: soluble on expression in E. coli; label from the status in PepcDB or PDB records

Sequence	soluble on expression in E. coli
MSSKIFCKSWGAEYIAADVVRFRLWATGQQKVMLRLAGKDQEMQANGDGWFTLDVAGVTPGTEYNFVLSDGMVVPDPASRAQKTDVNGPSYVVDPGSYTWRNTGWKGSRWEQAVVYEMHTGTFTPEGTFRAAIAKLPYLAELGVTVIEVMPVAQFGGERGWGYDGVLLYAPHSAYGTPDDFKAFIDAAHGYGLSVVLDIVLNHFGPEGNYLPLLAPAFFHKERMTPWGNGIAYDVDAVRRYIIEAPLYWLTEYHLDGLRFDAIDQIEDSSARHVLVEIAQRIREDITDRPIHLTTEDSRNIISLHPRDQDGNAPLFTAEWNDDFHNAVHVFATGETQAYYNDFADAPEKHLARALAEGFAYQGEISPQTGEPRGVKSTGQPPVAFVDFIQNHDQVGNRAQGDRLITLAGAERTKVLLATLLLSPHIPLLFMGEEYGESRPFLFFTDFHGDLARAVREGRAKEFADHAGENVPDPNAPETFQRSKLNWKQQHSEEGKAWLAFTRELLLLRQKHIVPLLSAARESSGTVLQTAPGFIAVSWRFPGGTLSLALNISATTVLLPDLPGKTLFAWPNESTGSLSQHSLIVRLAQGESAS	not soluble
MRDYSELEIFEGNPLDKWNDIIFHASKKLSKKELERLLELLALLETFIEKEDLEEKFESFAKALRIDEELQQKIESRKTDIVIQSMANILSGSGSGSGSSGNPLDKWNDIIFHASKKLSKKELERLLELLALLETFIEKEDLEEKFESFAKALRIDEELQQKIESRKTDIVIQSMANILSGLEHHHHHH	soluble
MGSDKIHHHHHHMKDILVIGATGKQGNAVVKQLLEDGWYVSALTRNKNNRKLSDIGHPHLSIVEGDLSDNVSLQSAMKGKYGLYSIQPIVKDDVSEELRQGMKIIEIAEQENIQHIVYSTAGGVNRNRTGPHFEVLAKIENRLMESNINATVIKPSFFMDNFLRIAKVEDERITLPEFINPNIKFTMISSIDIAKIASYIFAHPQSFTHQSIEIGSDEVTLSEAATIFSEVTGKSTVIEGEFVSGVAEKQWLEEKGYEVDFELMAEINPTRLSLSDWLKVQNYNK	not soluble
MSENLHTIIHHVDFFPLRIRVFRNGDMFDHGRILVVTRKQFKHWIVFLDALTDLLRTATAVRRLFTTQGIPVHHFDDLETNGEYVAVETGPFVNVPYGQARFTLRLKRYNPIIRAPELIPTFLHSAESMDIYLKKEGYGTITGLPYPFDGILSRSPSASNIQIKHLQSHHIPPLKIGGSMEHLNELGTASWLGKNEKWMMGERVKLETQSQTLAQKSEKDEQIPRLDIKEVDGGSTTSEFMRNGEKSKSTTKLPRLLNSNRSFRREPVSAQKPPSEEPRSTSENLPPIDLKSIQISQNSQSTSQKKDSDTISIKTEEEVISILKPEKTTTESIVSSKISRKNAPKDDDEVRFHRSYQVTETTYTTRNSDETDRRKPENVEKTVESKNDRSVQDKSEKIEKKVPEKLSKPQKTETTKSKERAKWADQGNTTLKREKSIEKSTRQGKIDKSIEKLIDKSIDNTEKLSSQKPKIDMAKGELRKFDVDINEIPIRFEGPMVNKSRINTSRIVTSRSTTNLFVDEIVNEDELDDVIERAQLWDLNRRRQNMRQQHTQTSGSLCRSISAPRRRVVLFDPDFD	not soluble
MSRQNPVRSTRGNSLRAREAQQAQDAPLFQESSSNVFVVEKVLNKRLTRGGSEYYIKWQGFPESECSWEPIENLQCDRMIQEYEKEAAKRTTRKRRYSPQPSTSSSAELQPSTSDEWAGKTLKTIIGITKAPGELHFLCKFSDDSVHLIPLREANVRFPSQVIKFYETRLVLQGVSPTIPGGMS	not soluble
MFPLFPNPQTRRTMSVLSEQVDGRPPQPPSGRRGKRWLRAIAAGALLAAGGGASTQPVAQQAPQSHARKVKVLIISMFAPEAQPWIDKLGLTQAVPVPGLSIDYPSVHCNASDVCQLTTGMGKANAASSVSALIHSGQFDLSRAYFLVAGIAGIDPSQGTLGTAAWARYLVDSDLAWEIDAREVPADWPNGFIGINTQGPGQKPPLNYKTEIFRVNEALLQKALALSKGAVLDDNATARAYRANYPSAPANQPPAVVQCDTAAGNTYWHGALLGQREAAWVKLLTDGQGTYCTTQQEDNATFEALTRGSKAGLLDLQRVAVLRTASNFDRPYPGQTPYDSLVGSNSGGFVPSLNNLYLAGGPLVNDIVTRWSVWKHGVPSPLEHHHHHH	not soluble
GPGSMDTRDRPLPRTPPLQTPRGSCHPPLLTVEEDVRRAGQVRQVRPTKELNCRHQTSLQLYREHRRCEAEGFKERRVILRVWVLHGQHAPGGHTRPHPTGAQDRDAQAPQLRRAVESRLSPTHYEAEGDGRLNRRHHTTTACSHQRPHILRHIRRGNKDVAP	not soluble
MSESAFSNRIVQSLLDTDFYKLTMMQAVLHNYPNVDVEWEFRCRNGEDLRPYLGEIQHQIELLCELSLSPEHLVFLERITFMKPDFLRFLGLFRFNTRYVKTSIENDELCIRLHGPWLHVILFEVPLLAIVSEVRNRHRYPDTLLSQARDRLYDKFEWLTVNATPDELAELKVADFGTRRRFSYRVQEEVLNVLKLDFPGQLVGTSNVHLARQLDLKPLGTMAHEWIMAHQQLGPRLIDSQIAALDCWVREYRGLLGIALTDCITTDAFLNDFDLYFAKLFDGLRHDSGDPVKWAEKCISHYQKLGIDPMSKTLVFSDGLNLPKALDIFRALRGRINVSFGIGTNLTADIPGIAPMNMVLKMTACAGQAVAKISDESGKTQCKDPNFVAYLRHVFKVPDLPSPAKPALEHHHHHH	not soluble
ITKAINYMAKRRIGALLTIERDTGMGDYIETGIPLNAKVSSELLINIFIPNTPLHDGAVIMKNNEIAAAACYLPLSESPFISKELGTRHRAAVGISEVTDSLTIIVSEETGGVSVAKNGD	not soluble
AIAKNFNDEEHNSQLTDEVLPEPEDARVIANILKAVGVESFDTRVVAQLVEFVYKYIGEVLELSKTFAQYAEREDIRQDDVKLAISSLLSKSFTQPPSRDVLLQLCRERNAVPLPVVDTYVGIQLPPKEFQLTTRNYQLKRKTTTESVASQELSEATGNISIGESSLQPNEEESNTMNT	soluble
MGLKKCGLNLSRDNKELKPHGTIDFPCAGYSSCYRDSEDDIIPWHWHPELEILYIKSGNLKLKLPEKTFHLTPGDGFIVNSNVLHYAVAEPLCELHSIVFSPLLITGWEGSVFAEKYIGPLVRCPSFDGCSLNCLFPEPEMFENLFTAAFHALAEDLPGYEFTLREALSKLCYALCLRFGPETGDDCPAPSPDAERLRRMLDYIHCHYSEPLKLSQIAEAADIGERECLRCFSRMIQVSPIQYLLKYRVNQSASLLLREPGKNITAIAGGCGFDSPGNFSRIFKRYYKCSPKEYRSRNKE	soluble
EIEMTQSPSSLSASVGDRVTISCRASQRINTYLNWYQHKPGKAPKLLIYAASSLQSGVPSRFSGSGYGTDFTLTISSLQPEDFASYYCQESLSASYTFGQGTKVEIKRTVAAPSVFIFPPSDEQLKSGTASVVCLLNNFYPREAKVQWKVDNALQSGNSQESVTEQDSKDSTYSLSSTLTLSKADYEKHKVYACEVTHQGLSSPVTKSFNRGEC	soluble
MGHGEEPLTATYKTQRPPWIGLWSDREYKGRADWWKEPGLEDSVTRSGKLRLYRARFREEDPDWYDPKVKDGESLAGPFGLDSKKTKNLTKKGDQPGELSEFQNKVYEGSHQFKAIAEKFGISKEHPGLSVSPTLSDNMLTPKDELGRNAVLPNSWYPAGPRFFDSPLNEGSFWKGLAAAKYAGILLAPYTMLEIRALNTVSVSEFSPRTYMKRYLQLAPFPLAVAFAWGFSLSAASSIRHKDDVHNHWFASVAVGSTVATMKSNVALGTTAAIFTAILGAFWQYQRHSETGLQGMTAHPQSAGIWGGPLLWQKMQLGNADVPTTRY	not soluble
MTNLTNYHSHCLYCDGRANMEDFIRFAISEGFSSYGISSHAPLPFSTAWTMEWDRMDDYLSEFARLKEKYADKIELAIGLEIDYLNEESHPAIPRFQELPLDYRIGSVHMLYSPQGKVVDIDTPADIFRQLIDAHFEGDLDYVVHLYYKNLLRMVELGGFDILGHADKMHYNASCYRPGLLDEPWYDALVRDYFAEIARHGYIVEINTKSYHDLGTFYPNERYFPLLKELGIRVQVNSDAHYPERINNSRAEALAALKKVGFDTVVEWHGGQWKDMPLLQLEHHHHHH	soluble
MGEYYHATVNGVVEYGAFVDLSEHVSGLIHESTYSGDPDLAVDDDVIVHLSAVRDNGDLSFEFVDPEEYRTEQRSHAYERTTADAVGLEHHHHHH	soluble
PCFALTSPEAGSDAGSIPDYGVVCKGEWEGKEVLGMRLTWNKRYITLAPVATVLGLAFKLRDPEGLLGDKEDLGITCALIPTDVKGVEIGNRHFPLNVPFQNGPTRGKDIFVPIDFIIGG	not soluble
MIKIEINGIDEIIAKLNLIANKTENKTDLMRNIAGTMESAVQTNFEVGGRPKWLGIKHRKGVPLVDSENLMDSITSAYDNDTAFVGTNEEYAAIHQFGGMAGRGCKVKIEARPFLTLTEQDKSDILEEITDYWQRLLQ	not soluble
QSKFKKYSKMPLASGMTGKDVAEKMLHDNGIYDVRVTSTPGMLTDHYNPANKTVNLSEGVYGSNSVAAAAVAAHECGHAVQHARAYAPLKMRS	not soluble
MSLSWADKYRPKNIDDVILNSEIRKQITEWIESWKEGIPKKRSLILYGSQGTGKTTTAYAIAGTFGVPVVEMNASDQRNRDSMRGTALMASLYGDLFVESAKRPSKVILIDEADNMFERGGDTGGIYELSKIIKNSANPIVITMNDIFEFRKKNYASDVISASLTIEMKQYGRKLDKNYNEFRRNIKARLIFILKNEGYTLPDQVVDRIIDRNMPDIRSMINDLEASAVSGTNISDEGHHHHHH	soluble
MSLVALTEDTQANANIGRLTVQTVEIADETTAIRCLDWDRERFDIEFGLRNGTTYNSFLIKGEKIALVDTSHRKFEKLYLEIVAGLIDPNTIDYLIVSHTEPDHSGLVKDILQLAPNITIVGAKVAIQFLENMVHQPFKSLQVKSGERLDLGNGHSLEFVSAPNLHWPDTILTYDHKTGILYTCDVFGMHYCDDQTYDENFFAIEEDFKYYYDCLMGPNARSVLAALKRIENLAIKTVATGHGPLLQVHISEWLGRYKNWSLEQAKTETLVALFYAEDYGYSEHLVHILGHGCTKTGVAVELIDLNTAEPQEVRELVTQASGLVIAMPSQYSLTAQAALNTILAAVHHKQAIGLLESGGGEDEPVFPLRNKFQELGLVEAFPPILIKEAPAQTTEQLCEEAGTDIGQWLTRDRTIKQIKSINTDLEKALGRISTGLYIITTKKGEIQGAMFASWVTQASLNPLGVAIAVSKERAIESLMQVGDHFVLNVLEEDNYQGLMKHFLKRFAPGADRFAGIKTYPATDGSPILAESLAYTECEITSRMDCGDHWIIYSTVHVGRVANVHAMTAVHHRKVGNHYEGHHHHHH	soluble
PQEKLKLLAFTGTKGKTTAAYFAYHMLKESYKPAMFSTMNTTLDGKTFFKSQLTTPESLDLFAMMAECVTNGMTHLIMEVSSQAYLVDRVYGLTFDVGVFLNISPDHIGPIEHPTFEDYFYHKRLLMENSRAVVINSGMDHFSFLADQVADQEHVFYGPLSDNQITTSQAFSFEAKGQLAGHYDIQLIGHFNQENAMAAGLACLRLGASLADIQKGIAKTRVPGR	not soluble
MGQNIELHESLIRLIPYGEVPLPTVEQVQEHIYSYLNYLSESAIEQDVLFRVLLSTEERETLARAALGLTLEEISDFLRLTVKERLSSNGITIDATVTPMVVEYKTRLLSQMGIELGKPALYSFGGLDLLREWLNRRRKLFTQEARNLQLPQPKGILLEHHHHHH	not soluble
MSLKISIVTSTNVYADIAKNIVGKYGSAKAIIKNSATDPHDFEPTTQDAKELSSTNIIVANGLGYDSWMNKLASSVDKKPVLVGEELMKLKKGANPHIWYSLSMPTEYVDYLVKRLSKIDSKHKAYFEANGKKYLAKINQVKALAKNSKKTDKMVFVSEPVFDYALAEAGYKIGDKDFEKAVENNTDPSPKTINRMTNDIKNKKIAFFVNNTQSSSSTVKTFVKLAKQNNIPVLNVRETIPNHTTYLNWMKENYQNLANISKEGHHHHHH	soluble
